Experimental data as given in the supplement of paper PMC9170038.

System: MS2 coat protein
Assay: apparent KD of MS2 coat protein; designed switch direction (-1 OFF switch, 1 ON switch): -1; higher = weaker reporter binding
In short: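 Transcription of designed RNA switches on Illumina chips was done by stalled E. coli RNA polymerase. SNAP-549-labelled MS2 coat protein was then titrated in doubling steps from 0.7 or 1.5 nM to 3 µM, with steps of 0.8–1.5 h at the lowest and 10–20 min at the highest concentration. The per-design median over clusters of curve-fitted normalised fluorescence is reported as apparent KD.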

[1] = Eterna round: R95, input ligand: microRNA oligo, concentration not stated
[2] = Eterna round: R95, input ligand: FMN 200 uM
[3] = Eterna round: R95, input ligand: none
[4] = input ligand: microRNA oligo, concentration not stated

Row | Sequence | apparent KD of MS2 coat protein (input ligand: FMN 200 uM) | apparent KD of MS2 coat protein (input ligand: none) | apparent KD of MS2 coat protein [1] | apparent KD of MS2 coat protein [2] | apparent KD of MS2 coat protein [3] | apparent KD of MS2 coat protein [4]
1 | UUAUAACAUGAGGAUCACCCAUGUUAGGAUAUCGCAGUAAGCUUCAGUAAUGAGCAUUCGAGAAGGAACGGGUA [Eternabot (L2) Solution 63] (Eterna round: R97, puzzle: Exclusion 1) | 0.022 µM | 0.022 µM |  |  |  | 
2 | CCCAUGUUAGGAUAUCGGCUCCGCCGUUCCACAUGGCGCUCCGAGAAGGAACAUGAGGAUCACCCAUGUAAAGA [Raza] (puzzle: Exclusion 4) |  |  | 0.034 µM |  |  | 
3 | UUUAGUUCAGGAUAUGUAGACAUUAACAUGAGGAUCACCCAUGUAGAUCCUGAAUUGACUACAGAAGGGAGCAUUU [Mod of Brourd 9 - Jieux - Exclusion 5] (Eterna round: R97, puzzle: Exclusion 5) | 0.0889 µM | 0.0239 µM |  |  |  | 
4 | AGUAACUAUCACGAAAGUGAUAGUUACACAAGUAGUGAAACAUGAGGAUCACCCAUGUCCUCAUUUGCUCGUCUUAU [Sensor 3 - 33] (puzzle: Sensor v3, turn-off variant 2) |  |  | 0.168 µM | 0.461 µM | 0.925 µM | 
5 | GCAGCGUAUGUAGGAUAUCGGUCAGUUUCUGAUCGAGAAGGACAUGAGGAUCACCCAUGUAAAUUACCGUCUUUGACGGGCUGC [JL ENG1 3.68] (Eterna round: R96, puzzle: Exclusion NG 1) | 0.0205 µM | 0.0181 µM |  |  |  | 0.0141 µM
6 | GUGGUACAUGAGGAUCACCCAUGUUAGGAUAUCGCGUGAGGUUUUACUUCCGCACACACGAGAAGGGACGUCUU (puzzle: Exclusion 1) |  |  | 0.0277 µM |  |  | 
7 | AGGUACUUCAGGAGACAUGAGGAUCACCCAUGUUGAGUUAGCGAGGAUAUCGGUAACCAUUGUUAUGAGAAGGCGCAAACCAGA [Ex NG3 #42] (Eterna round: R96, puzzle: Exclusion NG 3) | 0.0259 µM | 0.0153 µM |  |  |  | 0.015 µM
8 | GCACGGUUGGUAGGAUAUCCUUGCGAUUAGCAAGGAGAAGGACCACAUGAGGAUCACCCAUGUACCUCAAUUAUCCUUCCGUGC [Eli exng1 - 025] (Eterna round: R96, puzzle: Exclusion NG 1) | 0.0137 µM | 0.0149 µM |  |  |  | 0.0109 µM
9 | AGAUGCUCGAGUCGACAUGAGGAUCACCCAUGUACAGUUAGUGAGGAUAUCUGAGACACAUAGUAGGAGAAGGCGCGAACAUGA [Ex NG3 #13] (Eterna round: R96, puzzle: Exclusion NG 3) | 0.132 µM | 0.06 µM |  |  |  | 0.0434 µM
10 | UCAAUUAUGACAGGAUAUAGUUUUUGUUUUUCUCUAGAAGGGUCUAUGCACAUGAGGAUCACCCAUGUUCUUUUUAUUUGCAUU [JR_ExcNG1_Sub016] (Eterna round: R96, puzzle: Exclusion NG 1) | 0.0475 µM | 0.0709 µM |  |  |  | 0.0461 µM
11 | UUAAUUAAUUAUAUAAGAUCACAUGAGGAUCACCCAUGUAUAUAGGAUAUCAGCUCGUGUAGAGCUGAGAAGGAUAUACAAUAU [ExNG3/3-B3] (Eterna round: R96, puzzle: Exclusion NG 3) | 0.241 µM | 0.175 µM |  |  |  | 0.21 µM
12 | AAUUCACAUGAGGAUCACCCAUGUCAGGAUAUGGUGACGCGGGUUUCGGUGCGUGUUGCCAGAAGGGACAGCUA (puzzle: Exclusion 1) |  |  | 0.0813 µM |  |  | 
13 | GUGUGCACGCUGCGAUCCUACAUGAGGAUCACCCAUGUGGUCUGGUGGCGUGGGUCACCGGACUUGGCUCGUCUUGC [salish99_S_TOV1_R5_072] (Eterna round: R97, puzzle: Sensor, turn-off variant 1) | 0.0356 µM | 0.0358 µM |  |  |  | 
14 | UUAAGCUUUGAGAUCCUUAACAUGAGGAUCACCCAUGUUCGUCUUAUGAUGGUCUGAUCCCUGAGGAUCGGACCGUU [Mat - Sensor v3 - turn-off var 1 - JL Mod - D3] (puzzle: Sensor v3, turn-off variant 1) |  |  | 0.0225 µM | 0.261 µM | 0.303 µM | 
15 | AGUUGGCGAGGAUAUACAUGAGGAUCACCCAUGUGAGAGAAAAAAGUGAGGAAGAAAAGUAGAAGGCGCUGACA [salish99_ex3_r3_038] (puzzle: Exclusion 3) |  |  | 0.0483 µM | 0.318 µM | 0.0773 µM | 
16 | UUAAAUCAUGUAGGAUAUGCGUGGCGAAGCUAUGCAGAAGGACAUGAGGAUCACCCAUGUGCUUGCGUCUGAGUACAGAUGCUA [Mat - Exclusion NG 1 - Mod of JL - D4] (Eterna round: R96, puzzle: Exclusion NG 1) | 0.0864 µM | 0.117 µM |  |  |  | 0.074 µM
17 | CCUCUGUUAGGAUAUCAAACACUAUCUGCUCCAGAGUUAAGUGAGAAGGGACAUGAGGAUCACCCAUGUAAAAU [Isreusraar] (puzzle: Exclusion 4) |  |  | 0.0262 µM |  |  | 

Row | Sequence | apparent KD of MS2 coat protein (input ligand: FMN 200 uM) | apparent KD of MS2 coat protein (input ligand: none) | apparent KD of MS2 coat protein [1] | apparent KD of MS2 coat protein [2] | apparent KD of MS2 coat protein [3] | apparent KD of MS2 coat protein [4]
18 | GAGCCAUCGUGAGAUGGCUCAAUUACAUGAGGAUCACCCAUGUAGGAUAUCGAUUGCUUUGCAGUCGAGAAGGACAUGUUUAAU [JL ENG3 3.00] (Eterna round: R96, puzzle: Exclusion NG 3) | 0.0674 µM | 0.0303 µM |  |  |  | 0.0258 µM
19 | UUCACGUCAGGAUAUCCAUAUUUCUGAUAUAACGGUACUUUGGAGAAGGGACAUGAGGAUCACCCAUGUCCUCU [LRO-Excl4-19-Nando 22 Mod] (Eterna round: R97, puzzle: Exclusion 4) | 0.0155 µM | 0.0169 µM |  |  |  | 
20 | GCGGGCUUUUUGCUCGUUUACAUGAGGAUCACCCAUGUGUCUUCGCGCCCGGGCCCGGGCGGGCCCGGGCCCGGGCG [-52.3, -76.4, A 8%] (Eterna round: R97, puzzle: Sensor, turn-off variant 1) | 0.0361 µM | 0.0415 µM |  |  |  | 
21 | AGCUGUGGCCGAGGAUAUCUGAACUUUCAAACCGAAAUAUAAUCGGACAUGAGGAUCACCCAUGUAGAGAAGGCGGUCUCAGCA [Eli eng2 - 061] (Eterna round: R96, puzzle: Exclusion NG 2) |  |  |  |  |  | 0.0105 µM
22 | AACUCACAUGAGGAUCACCCAUGUGAGGAUAUGGUUUCGCUGGCCGUAGCCAGUGGAACCAGAAGGCGCGUGAU [Mat - Exclusion 1 - JL Mod - D26] (Eterna round: R97, puzzle: Exclusion 1) | 0.0524 µM | 0.0589 µM |  |  |  | 
23 | UAGAUGGGAGGAUAUGCAUAGAUACAGAUUCGUGUAGUGCUACAUGAGGAUCACCCAUGUAGAAGGCCCGUCUU [JL-ex2-2.22 Mayanne mod] (puzzle: Exclusion 2) |  |  | 0.0142 µM |  |  | 
24 | AAUAAGCUAGGAUAUACAUGAGGAUCACCCAUGUGAGGGCACCGCCGGCGCGGGCCCGGUAGAAGGAGUCAUAA [Exc;s3-V] (puzzle: Exclusion 3) |  |  | 0.0343 µM | 0.0221 µM | 0.0277 µM | 
25 | AGUACUAACUCGAAAGUGUUAGUACAAUAAGCUUGUGAAACAUGAGGAUCACCCAUGUCCUCAUAAGCUCGUCUUAU [salish99_TOv2_r3_022] (Eterna round: R96, puzzle: Sensor v3, turn-off variant 2) | 0.016 µM | 0.018 µM |  |  |  | 0.43 µM
26 | AUUCCACAUGAGGAUCACCCAUGUGAGGAUAUCAUGCUUCGUAGUAAACUACGAAGUGUGAGAAGGCACAAUGG [Omei Ex1 C3] (Eterna round: R97, puzzle: Exclusion 1) | 0.183 µM | 0.062 µM |  |  |  | 
27 | CUUUUGUGAGGAUAUCGGUAGUAAUACAAUAGUAUUACUACUGAGAAGGCACAUGAGGAUCACCCAUGUUCCUC [Ex4 344 Omei mod 9] (puzzle: Exclusion 4) |  |  | 0.043 µM |  |  | 
28 | GAACUGAAGCUUUGCUUUAGUCGUACAUGAGGAUCACCCAUGUAGGAUAUGGUAGGCUUUGCUUACUAGAAGGACAGAGUGAUC [Mat - Exclusion NG 3 - Mod of JL - D68] (Eterna round: R96, puzzle: Exclusion NG 3) | 0.0618 µM | 0.113 µM |  |  |  | 0.0738 µM
29 | GGUUGGCGAGGAUAUACAUGAGGAUCACCCAUGUGAGAGAAAAAAGUCAGGAAGAAAAGUAGAAGGCGCUGACG [salish99_ex3_r3_028] (puzzle: Exclusion 3) |  |  | 0.0217 µM | 0.0324 µM | 0.0225 µM | 
30 | AAAACUGCCUAGGAUAUCUGAAGCCGAGGUAGAAGAGAAGGAGGCACAUGAGGAUCACCCAUGUCCCUCAUAAA [EX6 A.8] (Eterna round: R97, puzzle: Exclusion 6) | 0.0168 µM | 0.0143 µM |  |  |  | 
31 | AUAUAGUCAGGAUAUCGAAGUGUGUGUUGGUUUGUAAUUUACGAGAAGGGACAUGAGGAUCACCCAUGUAGGAA [JR_Exclusion4)Sub002] (Eterna round: R96, puzzle: Exclusion 4) | 0.0493 µM | 0.0441 µM |  |  |  | 0.0338 µM
32 | CGUUCUCACGUCAGGAUAUAGGACUUGCACGUGUGCUAGAAGGGACAUGAGGAUCACCCAUGUAAAUAAGAAAG [Quonbi] (Eterna round: R97, puzzle: Brourd's mod of Exclusion 4) | 0.0375 µM | 0.0271 µM |  |  |  | 
33 | GCGAAAGCAAACAAGUGAAACAUGAGGAUCACCCAUGUCCUCAUUUGCUCGUCUUAUAAGCUAUGCGAAAGCAUAGC [Sensor 3, v1 - 6] (puzzle: Sensor v3, turn-off variant 1) |  |  | 0.269 µM | 0.038 µM | 0.0416 µM | 
34 | GUCAGGAAUGUAGGAUAUCUGCACGAUUAGUGCAGAGAAGGACAUGAGGAUCACCCAUGUAUAGUAGCUUCGGCUACACCUGAC [ENG1-A1] (Eterna round: R96, puzzle: Exclusion NG 1) | 0.0167 µM | 0.0195 µM |  |  |  | 0.014 µM
